{"source": "patent US20130309252A1", "about": "(UNIVERSITE DE LA MEDITERRANEE AIX MARSEILLE II, published 2013)", "binders": {"B1": {"name": "JAM-C cytoplasmic C-terminal construct, yeast two-hybrid (other)", "chain": "ICCAYRRGCFISSKQDGESYKSPGKHDGVNYIRTSEEGDFRHKSSFVI", "notes": "also called JAM-C C-terminal region; not shown: Gal4 domain of the two-hybrid vector"}, "B2": {"name": "ADAM17 C-terminal sequence, yeast two-hybrid construct (other)", "chain": "CVDKKLDKQYESLSLFHHSNIEMLSSMDSASVRIIKPFPAPQTPGRLQALQPAAMMPPVSAAPKLDHQRMDTIQEDPSTDSHVDDDGFEKDPFPNSSTAAKSFEDLTDHPVTRSEKAASFKLQRQSRVDSKETEC", "notes": "not shown: Gal4 domain of the two-hybrid vector"}, "B3": {"name": "JAM-C ΔPDZbm, yeast two-hybrid construct lacking the last three amino-acids (other)", "chain": "ICCAYRRGCFISSKQDGESYKSPGKHDGVNYIRTSEEGDFRHKSS", "notes": "End at 307 worked out from 'deletion of the last three amino-acids' of 263-310; not shown: Gal4 domain of the two-hybrid vector"}, "B4": {"name": "ADAM10 C-terminal sequence, yeast two-hybrid construct (other)", "chain": "FIKICSVHTPSSNPKLPPPKPLPGTLKRRRPPQPIQQPPRQRPREYQMGHMRR", "notes": "as for B2"}, "B5": {"name": "JAM-B cytoplasmic C-terminal construct, yeast two-hybrid (other)", "chain": "TCYAQRKGYFSKETSFQKGSPASKVTTMSENDFKHTKSFII", "notes": "as for B2"}, "B6": {"name": "JAM-A ΔPDZbm, yeast two-hybrid construct lacking the last three amino-acids (other)", "chain": "AYSRGYFETTKKGTAPGKKVIYSQPSTRSEGEFKQTS", "notes": "End at 296 worked out from 'deletion of the last three amino-acids' of 260-299; not shown: Gal4 domain of the two-hybrid vector"}, "B7": {"name": "JAM-B ΔPDZbm, yeast two-hybrid construct lacking the last three amino-acids (other)", "chain": "TCYAQRKGYFSKETSFQKGSPASKVTTMSENDFKHTKS", "notes": "End at 295 worked out from 'deletion of the last three amino-acids' of 258-298; not shown: Gal4 domain of the two-hybrid vector"}, "B8": {"name": "biotinylated peptide corresponding to the last 19 amino-acids of JAM-C (peptide)", "peptide": "NYIRTSEEGDFRHKSSFVI", "modifications": "also: biotinylated (position not given here)", "notes": "also called JAM-C peptide; biotinylated JAM-C"}, "B9": {"name": "JAM-A, endogenous mouse protein immunoprecipitated with rat mAb H202 (receptor)", "chain": "KGSVYTAQSDVQVPENESIKLTCTYSGFSSPRVEWKFVQGSTTALVCYNSQITAPYADRVTFSSSGITFSSVTRKDNGEYTCMVSEEGGQNYGEVSIHLTVLVPPSKPTISVPSSVTIGNRAVLTCSEHDGSPPSEYSWFKDGISMLTADAKKTRAFMNSSFTIDPKSGDLIFDPVTAFDSGEYYCQAQNGYGTAMRSEAAHMDAVELNVGGIVAAVLVTLILLGLLIFGVWFAYSRGYFETTKKGTAPGKKVIYSQPSTRSEGEFKQTSSFLV", "notes": "also called junctional adhesion molecule A"}, "B10": {"name": "JAM-B, endogenous mouse protein immunoprecipitated with rat mAb JB4 (receptor)", "chain": "FSASKDHRQEVTVIEFQEAILACKTPKKTTSSRLEWKKVGQGVSLVYYQQALQGDFKDRAEMIDFNIRIKNVTRSDAGEYRCEVSAPTEQGQNLQEDKVMLEVLVAPAVPACEVPTSVMTGSVVELRCQDKEGNPAPEYIWFKDGTSLLGNPKGGTHNNSSYTMNTKSGILQFNMISKMDSGEYYCEARNSVGHRRCPGKRMQVDVLNISGIIATVVVVAFVISVCGLGTCYAQRKGYFSKETSFQKGSPASKVTTMSENDFKHTKSFII", "notes": "also called junctional adhesion molecule B"}, "B11": {"name": "JAM-C, endogenous mouse protein immunoprecipitated with rat mAb 19H36 (receptor)", "chain": "EAVNLKSSNRNPVVHEFESVELSCIITDSQTSDPRIEWKKIQDGQTTYVYFDNKIQGDLAGRTDVFGKTSLRIWNVTRSDSAIYRCEVVALNDRKEVDEITIELIVQVKPVTPVCRIPAAVPVGKTATLQCQESEGYPRPHYSWYRNDVPLPTDSRANPRFQNSSFHVNSETGTLVFNAVHKDDSGQYYCIASNDAGAARCEGQDMEVYDLNIAGIIGGVLVVLIVLAVITMGICCAYRRGCFISSKQDGESYKSPGKHDGVNYIRTSEEGDFRHKSSFVI", "notes": "also called junctional adhesion molecule C"}}, "note": "Where no end group is shown, it is not given here."}
{"target": "Grasp55 PDZII′ (108-208), yeast two-hybrid construct (murine, UniProt Q99JX3 108-208)", "experiment": "yeast two-hybrid, growth on selective medium", "description": "(§1) The different GRASP55 constructs were cloned into pGBT9 GW vector (Ga14 DNA-binding domain fusion vector, Trp) as well in the pACT2 GW vector (Gal4 DNA-activation domain fusion vector, Leu) using the Gateway technology (Invitrogen). Plasmids were then co-transformed in AH109 yeast strain (/MATa, trp1-901, leu2-3, 112, ura3-52, his3-200, gal4/A, /gal80/A, /LYS2::GAL1//UAS//-GAL1//TATA//-HIS3, GAL2//UAS//-GAL2//TATA//-ADE2, URA3::MEL1//UAS//-MEL1//TATA//-lacZ, MEL1/) in accordance with the previously described transformation protocol (Chien et al. 1991. Proc Natl Acad Sci USA. 88:9578-82). Following co-transformation with the two vectors containing the different constructs (as well as the empty vector to test self activation), yeasts were plated onto Synthetic Complete (SC) medium minus Leucine (−L), minus Tryptophan (−W), minus Histidine (−H) and incubated at 30° C. for 4 to 5 days. All yeast media were prepared as previously described.\n(§2) GST fusion proteins were produced and yeast two-hybrid assay was performed as previously described in example 1."}
{"binder": "B1", "binding result": "no binding"}
{"binder": "B2", "binding result": "no binding"}
{"binder": "B3", "binding result": "no binding"}
{"binder": "B4", "binding result": "no binding"}
{"target": "T1, Grasp55 FL, yeast two-hybrid construct (murine, UniProt Q99JX3 1-451)", "T1 construct": "Gal4 fusion expressed in yeast AH109; also called wt Grasp55", "experiment": "yeast two-hybrid, growth on selective medium", "description": "as §1, §2"}
{"binder": "B1", "binding result": "binds"}
{"binder": "B5", "binding result": "binds"}
{"binder": "B3", "binding result": "no binding"}
{"binder": "B6", "binding result": "no binding"}
{"binder": "B7", "binding result": "no binding"}
{"target": "Grasp55 PDZI′ + II′ (1-208), yeast two-hybrid construct (murine, UniProt Q99JX3 1-208)", "experiment": "yeast two-hybrid, growth on selective medium", "description": "as §1, §2"}
{"binder": "B1", "binding result": "binds"}
{"binder": "B2", "binding result": "no binding"}
{"binder": "B3", "binding result": "no binding"}
{"target": "T2, Grasp55 PDZII (80-160), yeast two-hybrid construct (murine, UniProt Q99JX3 80-160)", "T2 construct": "also called isolated second PDZ domain", "experiment": "yeast two-hybrid, growth on selective medium", "description": "as §1, §2"}
{"binder": "B1", "binding result": "no binding"}
{"binder": "B5", "binding result": "no binding"}
{"binder": "B2", "binding result": "binds"}
{"binder": "B3", "binding result": "no binding"}
{"binder": "B6", "binding result": "no binding"}
{"binder": "B7", "binding result": "no binding"}
{"target": "Grasp55 PDZI + II (1-160), yeast two-hybrid construct (murine, UniProt Q99JX3 1-160)", "experiment": "yeast two-hybrid, growth on selective medium", "description": "as §1, §2"}
{"binder": "B1", "binding result": "binds"}
{"binder": "B5", "binding result": "binds"}
{"binder": "B2", "binding result": "no binding"}
{"binder": "B3", "binding result": "no binding"}
{"binder": "B6", "binding result": "no binding"}
{"binder": "B7", "binding result": "no binding"}
{"target": "T3, Grasp55 PDZI (1-79), yeast two-hybrid construct (murine, UniProt Q99JX3 1-79)", "T3 construct": "also called isolated first PDZ domain", "experiment": "yeast two-hybrid, growth on selective medium", "description": "as §1, §2"}
{"binder": "B1", "binding result": "no binding"}
{"binder": "B5", "binding result": "no binding"}
{"binder": "B2", "binding result": "no binding"}
{"binder": "B3", "binding result": "no binding"}
{"binder": "B6", "binding result": "no binding"}
{"binder": "B7", "binding result": "no binding"}
{"binder": "B4", "binding result": "no binding"}
{"target": "Grasp55 PDZI′ (1-107), yeast two-hybrid construct (murine, UniProt Q99JX3 1-107)", "experiment": "yeast two-hybrid, growth on selective medium", "description": "as §1, §2"}
{"binder": "B1", "binding result": "binds"}
{"binder": "B2", "binding result": "no binding"}
{"binder": "B3", "binding result": "no binding"}
{"binder": "B4", "binding result": "no binding"}
{"target": "T4, GST-PDZI′ recombinant Grasp55 protein (murine)", "T4 construct": "also called Grasp-GST-PDZI′; PDZI′-GST-construct", "T4 sequence (chain, as listed by the source)": "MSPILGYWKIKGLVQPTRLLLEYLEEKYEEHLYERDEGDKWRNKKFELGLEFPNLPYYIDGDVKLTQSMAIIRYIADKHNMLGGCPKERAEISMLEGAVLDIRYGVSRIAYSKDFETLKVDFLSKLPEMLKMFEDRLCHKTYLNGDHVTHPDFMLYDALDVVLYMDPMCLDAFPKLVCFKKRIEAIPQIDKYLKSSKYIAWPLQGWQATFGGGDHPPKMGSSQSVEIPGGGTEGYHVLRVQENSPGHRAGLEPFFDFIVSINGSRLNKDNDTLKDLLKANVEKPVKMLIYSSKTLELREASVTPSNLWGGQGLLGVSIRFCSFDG", "experiment": "HTRF", "protocol": "(§3) In some experiments, competing peptide or chemicals were added to the incubation mix at the indicated concentration. After incubation, microtiter plates (Costar #3693) were red using PolarScan Omega (BMG Labtech) equipped for HTRF measurements. Upon excitation at 320 nm, a 620 nm fluorescence emission is produced by the donor terbium that in turn excites a 665 nm light emission by a Streptavidin-d2 (acceptor) bound to the Biotinylated interacting Peptide if the latter is interacting with the donor. The […] R ratio is obtained and a Delta F is computed as: [(Rₛₐₘₚₗₑ−RNSB)/RNSB]*100 where RNSB is the Non Specific Background signal determined in incubates where the GST-fusion protein was omitted."}
{"binder": "NYIRTSEEGDFRHKSS (also: biotinylated (position not given here), also called JAM-CΔ)", "note": "[biotinylated JAM-C control peptide ΔPDZbm, lacking the last three amino-acids]", "binding result": "no binding (tested: 1.9*10^-7M peptide)"}
{"target": "T5, GST-PDZI′+II′ recombinant Grasp55 protein (murine)", "T5 construct": "also called Grasp-GST-PDZI′+II′", "experiment": "HTRF", "protocol": "as §3"}
{"binder": "NYIRTSEEGDFRHKSS (also: biotinylated (position not given here), also called JAM-CΔ)", "note": "[biotinylated JAM-C control peptide ΔPDZbm, lacking the last three amino-acids]", "binding result": "no binding (tested: 1.9*10^-7M peptide)"}
{"target": "T6, Grasp55 (Golgi reassembly-stacking protein of 55 kDa), endogenous mouse protein in cell lysates (murine, UniProt Q99JX3 2-451, limits assumed)", "T6 construct": "Endogenous protein detected by mass spectrometry or anti-GRASP55 blot", "experiment": "peptide pull-down of cell lysates, anti-GRASP55 blot", "description": "(§4) Total cell lysates were used as controls. Proteins were then resolved on SDS-PAGE and blotted with anti-GRASP55 antibody. Arrows indicate the signal corresponding to Grasp55."}
{"binder": "NYIRTSEEGDFRHKSS (also: biotinylated (position not given here), also called JAM-CΔ)", "note": "[biotinylated JAM-C control peptide ΔPDZbm, lacking the last three amino-acids]", "binding result": "no binding"}
{"target": "T6, Grasp55 (Golgi reassembly-stacking …)", "experiment": "peptide pull-down of KLN205 lysates, mass spectrometry", "description": "As control, the same peptides, but deleted of the last three amino-acids known as the functional PDZ binding motif of JAM family members, were used."}
{"binder": "SKVTTMSENDFKHTKS (also: biotinylated (position not given here), also called JAM-BΔ)", "note": "[biotinylated JAM-B control peptide, last 19 amino-acids deleted of the last three amino-acids]", "binding result": "no binding"}
{"target": "T4, GST-PDZI′ recombinant Grasp55 protein", "experiment": "HTRF competition against biotinylated JAM-C peptide", "protocol": "as §3", "units": {"fold increase in EC50 against GST-PDZI′+II′ and GST-GraspFL": "fold"}}
{"binder": "NYIRTSEEGDFRHKSSFVI (also called JAM-C unlabelled peptide)", "note": "[non-biotinylated (unlabelled) JAM-C peptide]", "fold increase in EC50 against GST-PDZI′+II′ and GST-GraspFL": 20}
{"target": "T7, GST-GRASP55 PDZ I (murine)", "T7 construct": "also called PDZ I of Grasp55; PDZI (1-79)", "T7 sequence (chain, as listed by the source)": "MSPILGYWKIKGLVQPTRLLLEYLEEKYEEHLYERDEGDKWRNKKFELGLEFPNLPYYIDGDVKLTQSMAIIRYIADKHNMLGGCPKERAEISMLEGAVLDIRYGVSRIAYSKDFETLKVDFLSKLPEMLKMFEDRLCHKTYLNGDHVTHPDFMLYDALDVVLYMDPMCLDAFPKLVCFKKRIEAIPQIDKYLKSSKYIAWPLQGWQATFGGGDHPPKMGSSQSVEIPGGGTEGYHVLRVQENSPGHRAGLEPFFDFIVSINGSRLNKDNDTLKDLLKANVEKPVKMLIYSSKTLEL", "experiment": "ELISA, GST fusion on glutathione plate, biotinylated peptide", "protocol": "(§5) Ninety-six well plates coated with glutathione were incubated overnight with various GST fusion proteins. The plates were then washed, blocked and incubated with JAMs biotinylated peptides with or without PDZ binding motif. […] Results are expressed as Mean+/−SEM of Relative Unit of absorbance measured at 450 nm. […] One representative experiment is shown.\n(§6) To set up ELISA test, various proteins of soluble GST-GRASP55 proteins were incubated on ninety-six-well plates (Nalge Nunc International) coated with glutathione. Plates were then washed and blocked with buffer containing PBS and 2% of bovine albumin for 2 hours. […] After three successive washes, streptavidin-HRP was added to reveal the various complexes, followed by a HRP substrate, tetramethylbenzidine (TMB). Absorbance (OD_{450 nm}) was determined on an ELISA POLARstar reader."}
{"binder": "B8", "binding result": "no binding"}
{"target": "T8, GST-GRASP55 PDZ I+II (murine)", "T8 construct": "also called PDZ I+II of Grasp55; PDZI+II (1-160)", "T8 sequence (chain, as listed by the source)": "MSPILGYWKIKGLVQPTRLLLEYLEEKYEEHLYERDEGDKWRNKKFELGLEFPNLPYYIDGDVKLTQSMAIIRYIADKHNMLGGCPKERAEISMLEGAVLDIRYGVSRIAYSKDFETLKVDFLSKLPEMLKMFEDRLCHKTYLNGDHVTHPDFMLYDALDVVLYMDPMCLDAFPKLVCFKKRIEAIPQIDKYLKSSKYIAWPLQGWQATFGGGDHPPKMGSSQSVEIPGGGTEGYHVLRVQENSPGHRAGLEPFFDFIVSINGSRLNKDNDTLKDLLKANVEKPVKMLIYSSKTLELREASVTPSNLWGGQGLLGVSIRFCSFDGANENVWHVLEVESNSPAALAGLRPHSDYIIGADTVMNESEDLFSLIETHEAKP", "experiment": "ELISA, GST fusion on glutathione plate, biotinylated peptide", "protocol": "as §5, §6"}
{"binder": "NYIRTSEEGDFRHKSS (also: biotinylated (position not given here), also called JAM-CΔ)", "note": "[biotinylated JAM-C control peptide ΔPDZbm, lacking the last three amino-acids]", "binding result": "no binding"}
{"target": "T6, Grasp55 (Golgi reassembly-stacking …)", "experiment": "co-immunoprecipitation, anti-GRASP55 blot", "protocol": "as §4\nProtein concentration of the samples was determined according to the Bradford method."}
{"binder": "B9", "binding result": "binds"}
{"binder": "B10", "binding result": "binds"}
{"binder": "B11", "binding result": "binds"}
